Measured values from publication PMC8050779.

Legend:
[1] = molecular target: oxytocin ion channel-coupled receptor with the T4 phage lysozyme domain, OXTR(T4L) fused to Kir6.2 (not stated | T4 phage) (UniProt P30559)
[2] = molecular target: oxytocin ion channel-coupled receptor with the T4 phage lysozyme domain, OXTR(T4L) fused to Kir6.2 (not stated | T4 phage) (UniProt P30559); remark: listed apart in the source

Sequence of oxytocin (P01178 whole entry, looked up, the tested form may be a part): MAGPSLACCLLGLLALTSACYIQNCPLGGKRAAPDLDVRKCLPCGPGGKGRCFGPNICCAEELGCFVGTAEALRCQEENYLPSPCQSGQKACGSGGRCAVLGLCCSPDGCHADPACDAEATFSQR
Sequence of UniProt P30559 (P30559 whole entry, looked up, the tested form may be a part): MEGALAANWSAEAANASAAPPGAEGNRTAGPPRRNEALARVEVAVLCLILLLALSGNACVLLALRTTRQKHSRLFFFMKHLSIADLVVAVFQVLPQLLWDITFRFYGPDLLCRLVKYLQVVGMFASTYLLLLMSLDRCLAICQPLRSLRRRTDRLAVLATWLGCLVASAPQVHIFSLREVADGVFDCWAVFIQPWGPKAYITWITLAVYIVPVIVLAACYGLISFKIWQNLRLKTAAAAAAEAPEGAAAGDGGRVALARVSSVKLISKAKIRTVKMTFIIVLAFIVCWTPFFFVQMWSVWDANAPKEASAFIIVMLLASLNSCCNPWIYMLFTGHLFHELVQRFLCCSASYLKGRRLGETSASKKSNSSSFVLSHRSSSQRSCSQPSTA

- ICCR activation by 1 μM oxytocin, TEVC, after cholesterol depletion and repletion with cholesterol (% of the control before incubation) [1]: 70
- ICCR activation by 1 μM oxytocin, TEVC, after cholesterol depletion and repletion with cholesteryl hemi-succinate (CHS) (% of the control level before incubation) [1]: 45
- amplitude of ICCR activation by 1 μM oxytocin, TEVC, after co-incubation with 20 mM MβCD and 5 μM oxytocin for at least 3 h and washing (% of the basal current) [2]: 100
- amplitude of ICCR activation by 1 μM oxytocin, TEVC, control without MβCD (Buffer + 5 μM oxytocin, at least 3 h) (% of the basal current) [2]: 120
Substance: oxytocin (from UniProt P01178 20-28) (peptide)
